From US5480970A, “Metal chelators” (Resolution Pharmaceuticals, priority 1993, dated 1996)
Side-chain parts run from the residue outwards. [ ]: non-standard residue; d: D form. The star is where a group is joined. Picolinoyl = O=C(c1ccccn1)*; Nle = CCCC[C@H](N)C(=O)O; Chel = not defined here; Acm = CC(=O)NC*; For = O=C*

Key:
[1] = tested on: inflamed muscle (left leg), E. coli; assay: In vivo uptake of Tc-99m chelates in inflamed vs non-inflamed muscle; set-up: species or system male Wistar rats; conditions: Inflam agent E. coli; for Inflam muscle / Uninfl muscle: time (min): RP-063 30, RP-056 45, IgG 120, others not given; for Infl:Uninfl: ratio inflamed to uninflamed muscle, time (min): RP-063 30, RP-056 45, IgG 120
Protocol: (§1) Rat inflammation studies were performed as follows. 2 male Wistar rats (Charles River, 150-200 g) were injected intramuscularly with zymosan, a yeast cell wall preparation (5 mg) or virulent E. coli (ATCC 25922, 0.1 ml of 0.5×10^9 organisms/ml) suspension into their left hindlegs 24 hours before imaging. Focal inflammation in the leg was visually detectable after 1 day. 1 mg (ca. 0.7 μMol) of the chelator was dissolved in 50 μL of dimethylsulfoxide and added to an ethanol-water mixture (1:1, 200 μL). An aliquot of Tc-99m tartarate (ca. 400 MBq) was added and transchelation allowed to proceed for 20 min. at 100° C. The Tc-99m chelate was purified by elution through a Sep Pak cartridge. The purified tracer solution was further diluted with saline to prepare an injectable (200 μL) containing about 100 μCi (3.7 MBq) of activity.
(§2) The rats were anaesthetized with somnitol (40 to 50 mg/kg), and the Tc-99m chelate solution (200 μL) was injected intravenously via the tail vein. Serial whole-body scintigrams were acquired for the first 5 minutes. Subsequently, further images were obtained at 30, 60, and 120 minutes. The rats were then killed with anaesthesia and samples of organs, urine, blood, inflamed muscle (left leg) and non-inflamed muscle (right leg) were weighted and counted in either a well-type gamma counter or in a gamma dose calibrator. The dose calculations were made based on assumption that the rat weighed 200 g and that the blood volume constituted 8% of body weight. Results are averages for two rats and are corrected for the residual dose in the tail.

neutrophil receptors = assay: Neutrophil binding assay, competition with tritiated fMLP; conditions: competition with 15 nM tritiated fMLP, 10^6 rat neutrophils, 1 hour room temperature
Protocol: Rat peripheral neutrophils were prepared for binding assay as follows: blood was obtained by cardiac puncture and anticoagulated with acid- citrate dextrose (ACD) (10%). Red blood cells were removed by sedimentation on hydroxyethyl cellulose (1.1%) for 30 min at room temperature and leukocyte-rich supernatant layered onto 65% percol. […] The remaining neutrophils were resuspended in Hanks Buffered Salt Solution (HBSS) to the desired concentration. Final neutrophil preparation consisted of cells pooled from up to 10 animals, >90% neutrophils and >95% viable by Trypan Blue exclusion.
Binding affinity of the test peptides was assessed by competing off a constant concentration of tritiated fMLP of known affinity for neutrophil receptors. 10^6 neutrophils were added to polypropylene plates containing 15 nM tritiated fMLP and varying concentrations of unlabelled test peptides in a final volume of 150 μL HBSS. […] Filters were then placed in 6 ml scintillation vials, 5 ml of scintillation fluid added (Ecolume) and vials counted using a liquid scintillation counter. […] Specific binding was the total binding less non-specific binding which was the amount of residual radioactivity bound in the presence of 10 μM unlabelled fMLP.

[2] = In vivo biodistribution of Tc-99m chelates in rat inflammation studies; set-up: species or system male Wistar rats; conditions: for In vivo Distribution blood: Tc-99m chelate i.v. tail vein, average of two rats, time (min): RP-022 90, RP-043 88, RP-050 109, RP-063 30, RP-065 30, IgG 120, RP-049 not given; for In vivo Distribution GI tract / In vivo Distribution liver / In vivo Distribution kidney / In vivo Distribution urine: Tc-99m chelate i.v.; for In vivo Distribution GI tract / In vivo Distribution liver: time (min): RP-022 90, RP-043 88, RP-050 109, RP-063 30; for In vivo Distribution kidney: time (min): RP-022 90, RP-043 88, RP-050 109, RP-063 30, RP-049 not given; for In vivo Distribution urine: time (min): RP-022 90, RP-043 88, RP-050 109, RP-063 30, RP-065 30
Protocol: as §1, §2

| Substance | Inflam muscle [1] [% per gm] | Uninfl muscle [1] [% per gm] | Infl:Uninfl [1] | binding affinity for neutrophil receptors (neutrophil receptors) | In vivo Distribution blood [2] [% per organ] | In vivo Distribution GI tract [2] [% per organ] | In vivo Distribution liver [2] [% per organ] | In vivo Distribution kidney [2] [% per organ] | In vivo Distribution urine [2] [% per organ] |
| --- | --- | --- | --- | --- | --- | --- | --- | --- | --- |
| (Pic-Gly-Cys(Acm)-Gly)-ε-NH-Lys(-Asp-Gly-OH)-Lys-Tyr-Nleu-Phe-Leu- Nleu-for (For-[Nle]LF[Nle]YKK([Gly-Cys(Acm)-Gly-Picolinoyl])DG-OH) [RP-056, ID No. 13] | 0.143 | 0.041 | 3.52 | greater binding affinity for neutrophil receptors than native fMLP |  |  |  |  |  |
| (Pic-Gly-Cys(Acm)-Gly)-εNH-Lys(-Gly-OH)-Tyr-Nleu-Phe-Leu-Nleu-for (For-[Nle]LF[Nle]YK([Gly-Cys(Acm)-Gly-Picolinoyl])G-OH) [RP-050, ID NO: 12] |  |  | 3.17 | greater binding affinity for neutrophil receptors than native fMLP | 3.436 | 25.777 | 20.866 | 11.470 | 14.050 |
| (Pic-Gly-Cys-Gly)-εNH-Lys(-Gly-OH)-Tyr-Nleu-Phe-Leu-Nleu-for (For-[Nle]LF[Nle]YK([Gly-Cys-Gly-Picolinoyl])G-OH; SMILES CCCC[C@H](NC=O)C(=O)N[C@@H](CC(C)C)C(=O)N[C@@H](Cc1ccccc1)C(=O)N[C@@H](CCCC)C(=O)N[C@@H](Cc1ccc(O)cc1)C(=O)N[C@@H](CCCCNC(=O)CNC(=O)[C@H](CS)NC(=O)CNC(=O)c1ccccn1)C(=O)NCC(=O)O) [RP-022, ID NO: 11] |  |  |  |  | 3.036 | 41.285 | 35.26 | 18.82 | 8.400 |
| (Pic-Ser-Cys(Acm)-Gly)-Lys-Pro-Pro-Arg-OH (Picolinoyl-SC(Acm)GKPPR-OH; SMILES CC(=O)NCSC[C@H](NC(=O)[C@H](CO)NC(=O)c1ccccn1)C(=O)NCC(=O)N[C@@H](CCCCN)C(=O)N1CCC[C@H]1C(=O)N1CCC[C@H]1C(=O)N[C@@H](CCCNC(=N)N)C(=O)O) [RP-065, ID NO: 10] | 0.125 | 0.059 | 2.1 |  | 3.520 |  |  |  | 53.000 |
| (Pic-Ser-Cys(Acm)-Gly)-Thr-Lys-Pro-Pro-Arg-OH (Picolinoyl-SC(Acm)GTKPPR-OH; SMILES CC(=O)NCSC[C@H](NC(=O)[C@H](CO)NC(=O)c1ccccn1)C(=O)NCC(=O)N[C@H](C(=O)N[C@@H](CCCCN)C(=O)N1CCC[C@H]1C(=O)N1CCC[C@H]1C(=O)N[C@@H](CCCNC(=N)N)C(=O)O)[C@@H](C)O) [RP-063, ID NO: 9] | 0.180 | 0.050 | 3.62 |  | 6.370 | 5.080 | 3.050 | 4.170 | 44.710 |
| Chel-Gly-Cys(Acm)-Gly-OH (reading uncertain; also: printed as Chel-Gly-Cys(Acm)-Gly-OH) [RP-043, ID NO: 6] |  |  |  |  | 1.016 | 52.619 | 0.953 | 4.359 | 33.950 |
| Pic-Gly-Cys(Acm)-Gly-OH (Picolinoyl-Gly-Cys(Acm)-Gly-OH; SMILES CC(=O)NCSC[C@H](NC(=O)CNC(=O)c1ccccn1)C(=O)NCC(=O)O) [RP-049, ID NO: 8] | 0.077 | 0.019 | 4.24 |  | 0.187 |  |  | 21.700 |  |
